Experimental data reported in patent US20070167369A1, “Novel use of isolated polypeptide comprising four FAS-1 domains, EM1 domain and RGD motif” (KYUNGPOOK NATIONAL UNIVERSITY INDUSTRY-ACADEMIC COOPERATION …, priority 2004, published 2007).

Key:
HUVECs [1] = assay: Endothelial tube formation in Matrigel (Example 14); assay type: cell-based, human; settings: for 70%-inhibition of tube formation observed at: concentration giving 70% inhibition; for inhibition of tube formation: various concentrations, 6 to 10 hours
Procedure: Matrigel (Chemicon, International Inc, Temecula, Calif.) was added (100 μl) into each well of a 96-well plate and polymerized for 30 minutes at 37° C. HUVECs were suspended in medium at a density of 3×10^5 cells/ml, and 0.1 ml of the cell suspension was pre-incubated with or without the indicated concentration of the truncated βig-h3, the fas-1 domain and Regenin for 40 min at 37° C., then seeded on the surface of the Matrigel. Cells were incubated for 6 to 10 hours at 37° C. The cells were then photographed, and branch points from 4 high-power fields (x200) were counted and averaged.

[2] = system: Murine melanoma cells (B16F10) tumor; assay: B16F10 tumor growth in BALB/c nude mice (Example 15-1); assay type: in vivo; settings: for tumor growth inhibition compared with control: i.p. everyday from 7 days after inoculation
Procedure: Murine melanoma cells (B16F10) were cultured in RPMI 1640 containing 25 mM/L HEPES with 10% fetal bovine serum. Male BALB/c nude mice (5-6 weeks old) were implanted with 1×10^6 B16F10 cells into the flank subcutis and monitored tumor growth and neovascularization after systemic treatment with exogenous fas-1 domain (5 μM) or truncated βig-h3 (50 nM or 10 nM). Experimental groups were i.p. injected everyday from 7 days after tumor cell inoculation with the indicated concentration of fas-1 domain or truncated βig-h3 in a total volume of 0.1 ml PBS. The control group was given an equal volume of PBS each day. Each experimental group consisted of six to eight mice. Tumor sizes were measured using Vernier calipers every 2 to 3 days, and the measured values were substituted in the following equation (2) to calculate the volumes of the tumor. Volume of tumor=width^2×length×0.52. [Equation 2]
Wherein, ‘width’ is the shortest diameter.

HUVECs [3] = assay: Migration of endothelial cells to vitronectin, transwell (Example 13-2); assay type: cell-based, human; settings: for IC50: read-out: half-inhibition of migration toward vitronectin observed at; for inhibition of migration to vitronectin: various concentrations, 4 to 6 hours
Procedure: Cell migration assays were done in transwell plates (8 μm pore size, Costar, Cambridge, Mass.). The undersurface of the membrane was coated with 5 μg/ml of vitronectin at 4° C. and blocked for 1 hour at room temperature with PBS containing 2% BSA. HUVECs were suspended in medium at a density of 3×10^5 cells/ml, and 0.1 ml of the cell suspension was pre-incubated with or without the indicated concentration of the truncated βig-h3, the fas-1 domain and Regenin for 40 min at 37° C., then added to the upper compartment of the filter. Cells were allowed to migrate for 4 to 6 hours at 37° C. The filters were fixed with 8% glutaraldehyde and stained with crystal violet, and non-migrating cells on the upper surface of the filter were removed by wiping with a cotton swab. The extent of cell migration was determined by light microscopy, and within each well, counting was done in nine randomly selected microscopic high power fields (x200).

HUVEC = assay: Adhesion of endothelial cells to vitronectin (Example 13-1); assay type: cell-based, human
Procedure: Flat-bottomed 96-well ELISA plates (Costar, Corning, Inc., NY) were incubated overnight at 4° C. with 5 μg/ml of vitronectin (Promega, Madison, Wis.) and blocked for 1 hour at room temperature with PBS containing 2% bovine serum albumin (BSA).
Primary human umbilical vein endothelial cells (HUVEC) were cultured at 37° C. in 5% CO2 in M199 medium supplemented with 20% fetal bovine serum. For all the experiments, HUVECs were used at passage 4 or less. HUVEC cells were suspended in medium at a density of 3×10^5 cells/ml, and 0.1 ml of the cell suspension was pre-incubated with or without the indicated concentration of the truncated βig-h3, the fas-1 domain and Regenin for 40 min at 37° C., then added to each well of the coated. After incubation for 5 to 10 minutes at 37° C., unattached cells were removed by rinsing with PBS. Attached cells were then incubated for 1 hour at 37° C. in 50 mM citrated buffer (pH 5.0) containing 3.75 mM p-nitrophenyl-N-acetyl-Dglycosamide and 0.25% Triton X-100. Enzyme activity was blocked by adding 50 mM glycine buffer (pH 10.4) containing 5 mM EDTA, and the absorbance was measured at 405 nm in a Bio-Rad model 550 microplate reader.

melanoma cells (B16F10) = assay: Proliferation of fas-1-overexpressing melanoma cells, MTT (Example 10-1); assay type: cell-based, murine; settings: fas-1 domain overexpressed (fas-1/B16F10) vs pLNCX/B16F10, 48-72 hours
Procedure: cDNA (SEQ ID NO: 65) encoding the fourth fas-1 domain of βig-h3 was cloned into the EcoRI/XhoI sites of a pLNCX retrovirus vector (Clontech Lab. Inc., USA). The resulting recombinant retrovirus vector was named “fas-1/pLNCX”. Packaging cell PT67 (Clontech Lab. Inc., USA) were transfected with the fas-1/pLNCX vector using lipofectamine. The transformed cells were incubated at 37° C. for 48 hours. After completion of the incubation, virus particles present in the culture medium were collected, and filtered one time through a 0.45-μm filter. The filtered virus particles were added to a culture medium of melanoma cells (B16F10), and then allowed to react at 37° C. for 6 hours. The culture medium was replaced with fresh medium, and the transfected cells were screened several times in the presence of 1 mg/ml of G418. Western blot analysis using a βig-h3 antibody was performed to confirm that the fas-1 domain is overexpressed in the screened transfected cells. As a result, fas-1-overexpressing melanoma cells (hereinafter, referred to as “fas-1/B16F10”) were prepared. […]
Each of the fas-1-overexpressing melanoma cells (fas-1/B16F10) and the control cells (pLNCX/B16F10) was suspended in medium at a density of 3×10^4 cells/ml, and 0.1 ml of the cell suspension was added to each well of a 96-well plate. […] Thereafter, the absorbance was measured at 570 nm in a Bio-Rad model 550 microplate reader.

[4] = various concentrations, vitronectin 5 μg/ml

B1: truncated βig-h3: recombinant human βig-h3 with EMI domain, all four fas-1 domains and RGD motif; residues 68-653 of SEQ ID NO: 1 (SEQ ID NO: 66) (protein, listed as Homo sapiens)
chain: WYQRKICGKSTVISYECCPGYEKVPGEKGCPAALPLSNLYETLGVVGSTTTQLYTDRTEKLRPEMEGPGSFTIFAPSNEAWASLPAEVLDSLVSNVNIELLNALRYHMVGRRVLTDELKHGMTLTSMYQNSNIQIHHYPNGIVTVNCARLLKADHHATNGVVHLIDKVISTITNNIQQIIEIEDTFETLRAAVAASGLNTMLEGNGQYTLLAPTNEAFEKIPSETLNRILGDPEALRDLLNNHILKSAMCAEAIVAGLSVETLEGTTLEVGCSGDMLTINGKAIISNKDILATNGVIHYIDELLIPDSAKTLFELAAESDVSTAIDLFRQAGLGNHLSGSERLTLLAPLNSVFKDGTPPIDAHTRNLLRNHIIKDQLASKYLYHGQTLETLGGKKLRVFVYRNSLCIENSCIAAHDKRGRYGTLFTMDRVLTPPMGTVMDVLKGDNRFSMLVAAIQSAGLTETLNREGVYTVFAPTNEAFRALPPRERSRLLGDAKELANILKYHIGDEILVSGGIGALVRLKSLQGDKLEVSLKNNVVSVNKEPVAEPDIMATNGVVHVITNVLQPPANRPQERGDELADSALEI
- 70%-inhibition of tube formation observed at (HUVECs [1]): 50 nM
- inhibition of tube formation (HUVECs [1]): dose-dependent inhibition
- tumor growth inhibition ([2]; 10 nM (68 μg/kg), i.p. everyday): inhibitory effect of tumor growth
- tumor growth inhibition compared with control ([2]; 50 nM (340 μg/kg)): equivalent levels of tumor growth inhibition
- inhibition of migration of endothelial cells to vitronectin (HUVECs [3]; 500 nM): strongly suppressed
- IC50 (HUVECs [3]): 0.05 µM
- inhibition of migration to vitronectin (HUVECs [3]): dose-dependent inhibition
- inhibition of adhesion to vitronectin (HUVEC; 500, 50 and 10 nM): clear dose-response effect
- inhibition of adhesion to vitronectin (HUVEC; [4]): dose-dependent inhibition

B2: fas-1 domain: recombinant protein containing the fourth fas-1 domain of human βig-h3 (SEQ ID NO: 64) (protein, listed as Homo sapiens)
chain: MGTVMDVLKGDNRFSMLVAAIQSAGLTETLNREGVYTVFAPTNEAFRALPPRERSRLLGDAKELANILKYHIGDEILVSGGIGALVRLKSLQGDKLEVSLKNNVVSVNKEPVAEPDIMATNGVVHVITNVL
- 70%-inhibition of tube formation observed at (HUVECs [1]): 5000 nM
- inhibition of tube formation (HUVECs [1]): dose-dependent inhibition
- tumor growth inhibition compared with control ([2]; 5 μM (10 mg/kg)): equivalent levels of tumor growth inhibition
- IC50 (HUVECs [3]): 5 µM
- inhibition of migration to vitronectin (HUVECs [3]): dose-dependent inhibition
- effect on proliferation of melanoma cells (melanoma cells (B16F10)): no effect on the proliferation of melanoma cells
- inhibition of adhesion to vitronectin (HUVEC; 500 nM): ineffective
- inhibition of adhesion to vitronectin (HUVEC; [4]): dose-dependent inhibition
